# B1: AREG: Recombinant mouse amphiregulin from R&D Systems, SEQ ID NO: 11; EGF receptor ligand (protein, listed as Mus musculus)
# chain: SVRVEQVIKPKKNKTEGEKSTEKPKRKKKGGKNGKGRRNKKKKNPCTAKFQNFCIHGECRYIENLEVVTCNCHQDYFGERCGEKSMKTHSEDDKDLSK
# modifications: Mouse AREG Protein
# notes: EGF receptor ligand
# What was measured:
# C57BL/6 mice = assay: Tube dominance test, lowest-ranked mouse in C57BL/6 mouse group; type: in vivo; settings: lowest-ranked C57BL/6 mouse, intracerebroventricular via osmotic pump
# Method: (§1) The apparatus for the tube dominance test was made of a transparent plastic tube with a length of 30 cm and an inner diameter of 2.5 cm. To allow the mice to adapt to passing through the inside of the tube, the respective mice were trained to pass across the tube alternately on both sides for two or three consecutive days. During the training period, care was taken to ensure that the mice passed through the tube as naturally as possible without causing stress. This test was performed after identifying that all mice could freely pass through the tube without stress.
# During the dominance test period, a total of 2 mice, one at each end of the tube, were placed to meet in the middle of the tube. In a case where one mouse pushed the other mouse out of the tube, one (1) winning point was earned. The test was repeated three times. […] For each test, win or loss was determined by winning points.
# (§2) First, starting at 1 month of age, the CRTC3 KO mice and the WT mice were housed in one group and raised together for 2 months. […] To determine changes in ranking of the mice in the group, social dominance ranking was evaluated by a tube dominance test daily for 15 days starting at 3 months of age. The respective mice in the group were tested in turn, and dominance ranking of the mice in the group was determined based on their winning points. […]
# [1] = system: CRTC3 KO primary astrocytes; assay: Cell shape index (CSI) of astrocytes, GFAP immunocytochemistry; type: cell-based, mouse; settings: AREG 200 ng/ml, vs WT astrocytes
# Method: Next, to identify localization of CRTC3 in the cellular changes induced in astrocytes, comparison of astrocyte shape was performed between the CRTC3 KO mice and the WT mice. The shape of the cells was observed using GFAP as an astrocyte marker through fluorescent staining according to the method described in Experimental Example 1.4.
# To more accurately compare the astrocyte shapes, complexity of the astrocyte shape was determined using the cell shape index (CSI) defined as follows (in the formula, P is a cell's perimeter and A is a cell's area).
# Immunocytochemistry was performed as follows. First, a 12 mm coverslip (Marienfeld, Germany) coated with PDL was placed in a 24-well plate, and cells were plated thereon. Then, the cells were fixed with 4% paraformaldehyde (Biosesang, Korea) for 10 minutes. The cells were washed three times with PBS, and then subjected to permeabilization with PBS containing 0.1% Triton X-100 for 5 minutes at room temperature. The cells were washed again three times and blocked with PBS containing 5% bovine serum albumin (BSA) at 37° C. for 30 minutes. The cells were washed three times and incubated with mouse anti-GFAP antibody (Chemicon-Millipore, USA) overnight at 4° C. […] Then, each sample was mounted using a fluorescence mounting solution (DAKO, USA) for imaging.
# CRTC3 KO mice [2] = assay: Tube dominance test, CRTC3 KO mice housed with WT mice; type: in vivo, mouse
# Method: as §1
# During the dominance test period, a total of 2 mice, one at each end of the tube, were placed to meet in the middle of the tube. In a case where one mouse pushed the other mouse out of the tube, one (1) winning point was earned. The test was repeated three times. […] For each test, win or loss was determined by winning points. […]
# as §2
# CRTC3 KO mice [3] = assay: Warm spot test; type: in vivo, mouse; settings: ICV osmotic pump, before vs after
# Method: The warm spot test was performed using the following apparatus and method. The test apparatus was a box with dimensions of 30 cm by 30 cm, and the bottom was kept cold by ice. A fan-shaped heating mat of approximately 3 cm was laid one corner of the bottom to warm only that part of the bottom. In the first test, the mice were placed in a box with all bottom surfaces cold and kept thereon for 30 minutes to get used to the environment. After 30 minutes, the mice were moved to a box with a heating mat on one corner of the bottom, and the time each mouse occupied the bottom surface with the heating mat was measured for 20 minutes. Based on the measured time, each mouse's ranking in the group was determined.
# First, starting at 1 month of age, the CRTC3 KO mice and the WT mice were housed in one group and raised together for 2 months. This allowed social ranking to be naturally formed among the mice in the same group. To determine changes in ranking of the mice in the group, social dominance ranking was evaluated by a tube dominance test daily for 15 days starting at 3 months of age. The respective mice in the group were tested in turn, and dominance ranking of the mice in the group was determined based on their winning points. […]
molecule,measurement,setting,value
B1,cages in which ranking of the lowest-ranked mouse increased after administration,C57BL/6 mice,71%
same,cell shape index (CSI),[1],increased a CSI level of the primary astrocytes in the CRTC3 KO mice to that of the WT astrocytes
same,cages in which changes (increase) in social dominance ranking were observed after administration,"CRTC3 KO mice [2]; CRTC3 KO mice with low ranking, housed with WT mice, intracerebroventricular via osmotic pump",81%
same,winning points after vs before administration,"CRTC3 KO mice [2]; CRTC3 KO mice, ICV osmotic pump",increase in winning points
same,social dominance ranking in warm spot test after administration,CRTC3 KO mice [3],increased social dominance ranking
same,time occupying the warm spot after administration,CRTC3 KO mice [3],increase in the time they occupied the warm spot

# Source: patent US20240315219A1, “ANIMAL MODEL FOR DISEASES ASSOCIATED WITH ABSENCE OR REDUCTION OF SOCIAL DOMINANCE, AND PHARMACEUTICAL COMPOSITION FOR PREVENTING OR TREATING DISEASES” (ADEL, Inc., priority 2021, published 2024)
